T1: human RXFP1 (human, UniProt Q9HBX9 1-757)
T1 sequence (looked up): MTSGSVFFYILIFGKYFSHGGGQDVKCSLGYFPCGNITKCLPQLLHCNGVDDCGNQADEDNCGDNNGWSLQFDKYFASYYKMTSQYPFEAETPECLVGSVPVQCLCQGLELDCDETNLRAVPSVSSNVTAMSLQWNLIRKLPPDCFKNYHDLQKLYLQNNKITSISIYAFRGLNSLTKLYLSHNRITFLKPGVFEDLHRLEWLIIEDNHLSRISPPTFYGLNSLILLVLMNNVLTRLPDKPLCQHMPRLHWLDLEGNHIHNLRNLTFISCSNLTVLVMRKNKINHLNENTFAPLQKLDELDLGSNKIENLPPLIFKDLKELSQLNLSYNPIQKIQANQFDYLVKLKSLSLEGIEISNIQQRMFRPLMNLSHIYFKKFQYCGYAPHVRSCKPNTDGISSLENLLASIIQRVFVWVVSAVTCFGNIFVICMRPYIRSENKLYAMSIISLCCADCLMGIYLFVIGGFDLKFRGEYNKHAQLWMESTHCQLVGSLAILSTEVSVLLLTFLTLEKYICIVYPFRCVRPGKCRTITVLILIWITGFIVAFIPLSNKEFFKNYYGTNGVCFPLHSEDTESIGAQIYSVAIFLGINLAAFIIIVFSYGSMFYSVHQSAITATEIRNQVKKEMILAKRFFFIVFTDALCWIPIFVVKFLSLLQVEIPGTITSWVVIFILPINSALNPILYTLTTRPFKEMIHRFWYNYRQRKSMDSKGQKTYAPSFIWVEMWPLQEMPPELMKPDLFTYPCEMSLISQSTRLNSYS

T2: mouse RXFP1 (mouse, UniProt Q6R6I7 1-758)
T2 sequence (looked up): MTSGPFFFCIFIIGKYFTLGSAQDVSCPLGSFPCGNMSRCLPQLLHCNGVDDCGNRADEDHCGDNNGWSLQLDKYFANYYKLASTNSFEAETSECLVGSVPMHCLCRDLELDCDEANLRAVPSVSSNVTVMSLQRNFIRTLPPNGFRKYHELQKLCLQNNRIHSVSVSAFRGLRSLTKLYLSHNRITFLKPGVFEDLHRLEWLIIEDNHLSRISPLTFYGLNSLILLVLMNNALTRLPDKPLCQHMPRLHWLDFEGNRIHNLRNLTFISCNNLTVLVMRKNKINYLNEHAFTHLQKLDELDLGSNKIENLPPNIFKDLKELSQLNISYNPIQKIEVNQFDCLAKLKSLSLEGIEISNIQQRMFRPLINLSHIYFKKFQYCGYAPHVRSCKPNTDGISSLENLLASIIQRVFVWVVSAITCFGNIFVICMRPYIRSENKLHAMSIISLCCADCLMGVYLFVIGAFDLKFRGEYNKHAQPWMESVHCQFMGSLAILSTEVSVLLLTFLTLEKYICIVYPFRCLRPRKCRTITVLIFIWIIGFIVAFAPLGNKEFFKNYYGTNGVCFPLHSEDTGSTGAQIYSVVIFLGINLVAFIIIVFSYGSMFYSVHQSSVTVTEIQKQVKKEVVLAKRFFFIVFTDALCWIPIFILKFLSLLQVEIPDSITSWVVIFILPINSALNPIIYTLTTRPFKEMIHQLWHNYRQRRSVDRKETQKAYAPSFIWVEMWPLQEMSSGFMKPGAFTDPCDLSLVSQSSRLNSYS

B1: RELAX0082 (Fc fusion)
chain 1: DKTHTCPPCPAPEFEGGPSVFLFPPKPKDTLMISRTPEVTCVVVDVSHEDPEVKFNWYVDGVEVHNAKTKPREEQYNSTYRVVSVLTVLHQDWLNGKEYKCKVSNKALPASIEKTISKAKGQPREPQVYTLPPCREEMTKNQVSLWCLVKGFYPSDIAVEWESNGQPENNYKTTPPVLDSDGSFFLYSKLTVDKSRWQQGNVFSCSVMHEALHNHYTQKSLSLSPGGGGGSGGGGGSQLYSALANKCCHVGCTKRSLARFC
chain 2: DKTHTCPPCPAPEFEGGPSVFLFPPKPKDTLMISRTPEVTCVVVDVSHEDPEVKFNWYVDGVEVHNAKTKPREEQYNSTYRVVSVLTVLHQDWLNGKEYKCKVSNKALPASIEKTISKAKGQPREPQVCTLPPSREEMTKNQVSLSCAVKGFYPSDIAVEWESNGQPENNYKTTPPVLDSDGSFFLVSKLTVDKSRWQQGNVFSCSVMHEALHNHYTQKSLSLSPGGGGGSGGGGGSSWMEEVIKLCGRELVRAQIAICGMSTWS
B2: RELAX0081 (Fc fusion)
chain 1: DKTHTCPPCPAPEFEGGPSVFLFPPKPKDTLMISRTPEVTCVVVDVSHEDPEVKFNWYVDGVEVHNAKTKPREEQYNSTYRVVSVLTVLHQDWLNGKEYKCKVSNKALPASIEKTISKAKGQPREPQVYTLPPCREEMTKNQVSLWCLVKGFYPSDIAVEWESNGQPENNYKTTPPVLDSDGSFFLYSKLTVDKSRWQQGNVFSCSVMHEALHNHYTQKSLSLSPGGGGGSGGGGSGGGGGSQLYSALANKCCHVGCTKRSLARFC
chain 2: DKTHTCPPCPAPEFEGGPSVFLFPPKPKDTLMISRTPEVTCVVVDVSHEDPEVKFNWYVDGVEVHNAKTKPREEQYNSTYRVVSVLTVLHQDWLNGKEYKCKVSNKALPASIEKTISKAKGQPREPQVCTLPPSREEMTKNQVSLSCAVKGFYPSDIAVEWESNGQPENNYKTTPPVLDSDGSFFLVSKLTVDKSRWQQGNVFSCSVMHEALHNHYTQKSLSLSPGGGGGSGGGGSGGGGGSSWMEEVIKLCGRELVRAQIAICGMSTWS
B3: RELAX0109 (Fc fusion)
chain 1: B2 chain 1
chain 2: DKTHTCPPCPAPEFEGGPSVFLFPPKPKDTLMISRTPEVTCVVVDVSHEDPEVKFNWYVDGVEVHNAKTKPREEQYNSTYRVVSVLTVLHQDWLNGKEYKCKVSNKALPASIEKTISKAKGQPREPQVYTLPPCREEMTKNQVSLWCLVKGFYPSDIAVEWESNGQPENNYKTTPPVLDSDGSFFLYSKLTVDKSRWQQGNVFSCSVMHEALHNHYTQKSLSLSPGAAPAPAPAPAPAPAGSSWMEEVIKLCGRELVRAQIAICGMSTWS
B4: RELAX0083 (Fc fusion)
chain 1: DKTHTCPPCPAPEFEGGPSVFLFPPKPKDTLMISRTPEVTCVVVDVSHEDPEVKFNWYVDGVEVHNAKTKPREEQYNSTYRVVSVLTVLHQDWLNGKEYKCKVSNKALPASIEKTISKAKGQPREPQVYTLPPCREEMTKNQVSLWCLVKGFYPSDIAVEWESNGQPENNYKTTPPVLDSDGSFFLYSKLTVDKSRWQQGNVFSCSVMHEALHNHYTQKSLSLSPGGGGGGSQLYSALANKCCHVGCTKRSLARFC
chain 2: DKTHTCPPCPAPEFEGGPSVFLFPPKPKDTLMISRTPEVTCVVVDVSHEDPEVKFNWYVDGVEVHNAKTKPREEQYNSTYRVVSVLTVLHQDWLNGKEYKCKVSNKALPASIEKTISKAKGQPREPQVCTLPPSREEMTKNQVSLSCAVKGFYPSDIAVEWESNGQPENNYKTTPPVLDSDGSFFLVSKLTVDKSRWQQGNVFSCSVMHEALHNHYTQKSLSLSPGGGGGGSSWMEEVIKLCGRELVRAQIAICGMSTWS

For one test, the target named is T1, human RXFP1. Briefly: cell-based or functional assay.
Regarding B1, the “EC50 hRXFP1 (M), cAMP assay” value was determined as 5.68e-11 M.
Take B2: the “EC50 hRXFP1 (M), cAMP assay” value is 4.51e-11 M.
Still for that read-out and setting: then B3, with 1.72e-09 M; and B4, with 2.81e-11 M.

In a further test the target is T2, mouse RXFP1. Nature of the test: cell-based or functional assay.
In the case of B1, the “EC50 mRXFP1 (M), cAMP assay” value is 4.9e-11 M.
With B2, the “EC50 mRXFP1 (M), cAMP assay” value was 4.73e-11 M.
For B3, the “EC50 mRXFP1 (M), cAMP assay” value is 8.22e-10 M.
With B4, the “EC50 mRXFP1 (M), cAMP assay” value came out at 1.34e-11 M.

Another test deals with human RXFP2 (human, UniProt Q8WXD0 1-754). Briefly: cell-based or functional assay.
human RXFP2, sequence (Q8WXD0 whole entry): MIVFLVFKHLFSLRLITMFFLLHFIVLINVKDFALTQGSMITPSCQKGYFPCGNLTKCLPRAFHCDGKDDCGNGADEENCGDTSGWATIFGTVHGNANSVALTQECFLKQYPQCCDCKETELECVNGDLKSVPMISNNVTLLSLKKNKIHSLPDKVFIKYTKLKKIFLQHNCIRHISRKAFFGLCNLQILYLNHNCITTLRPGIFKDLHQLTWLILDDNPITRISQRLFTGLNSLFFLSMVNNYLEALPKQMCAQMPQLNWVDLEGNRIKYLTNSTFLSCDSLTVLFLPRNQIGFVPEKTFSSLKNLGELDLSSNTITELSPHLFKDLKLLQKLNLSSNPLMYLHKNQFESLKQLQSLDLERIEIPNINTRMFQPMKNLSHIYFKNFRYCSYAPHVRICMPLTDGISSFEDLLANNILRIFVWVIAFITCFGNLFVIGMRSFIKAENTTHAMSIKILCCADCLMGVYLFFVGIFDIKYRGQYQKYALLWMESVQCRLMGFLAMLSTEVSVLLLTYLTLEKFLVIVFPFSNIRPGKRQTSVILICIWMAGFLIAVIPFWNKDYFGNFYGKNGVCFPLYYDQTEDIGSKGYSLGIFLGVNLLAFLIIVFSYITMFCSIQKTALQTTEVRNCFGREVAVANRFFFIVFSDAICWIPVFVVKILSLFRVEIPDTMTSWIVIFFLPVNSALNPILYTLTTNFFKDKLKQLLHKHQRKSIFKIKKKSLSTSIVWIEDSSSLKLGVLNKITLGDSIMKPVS
In the case of B1, the “EC50 hRXFP2 (M), cAMP assay” value stood at 3.81e-08 M.
Still for that read-out and setting: with B2 the figure was 4.92e-08 M; with B4, 2.42e-08 M.
